Patent US7041441 (US Dept. of Health and Human Services, dated 2006)

Molecular target: T1, gp23* (major capsid protein of bacteriophage T4, cleaved mature form, in the expanded surface lattice) (bacteriophage T4, UniProt P04535 66-521)
T1 construct: mature; also called surface lattice protein; cleaved/expanded polyheads
T1 sequence: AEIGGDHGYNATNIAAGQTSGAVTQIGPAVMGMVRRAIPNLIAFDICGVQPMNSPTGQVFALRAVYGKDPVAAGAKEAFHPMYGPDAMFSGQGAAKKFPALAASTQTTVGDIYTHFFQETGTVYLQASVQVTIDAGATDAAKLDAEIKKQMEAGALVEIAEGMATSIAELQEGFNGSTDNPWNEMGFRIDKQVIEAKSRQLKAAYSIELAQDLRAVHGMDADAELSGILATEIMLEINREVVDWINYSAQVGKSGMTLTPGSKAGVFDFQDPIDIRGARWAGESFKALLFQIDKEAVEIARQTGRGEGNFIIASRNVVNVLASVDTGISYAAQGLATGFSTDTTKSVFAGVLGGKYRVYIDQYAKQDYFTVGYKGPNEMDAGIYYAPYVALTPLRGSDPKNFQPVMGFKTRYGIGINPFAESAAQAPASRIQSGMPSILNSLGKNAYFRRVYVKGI
Experiment: co-pelleting with cleaved/expanded polyheads, quantitation of SDS-PAGE bands

B1: SOC (small outer capsid) protein of bacteriophage T4, wild type (other)
chain: MASTRGYVNIKTFEQKLDGNKKIEGKEISVAFPLYSDVHKISGAHYQTFPSEKAAYSTVYEENQRTEWIAANEDLWKVTG
notes: mature
B1 was tested, and the “molar ratio of SOC:gp23*” value was 1.2 mol/mol.

B2: SOC-V3 fusion protein (SOC, Cys-Leu-Asn-Ser, 43-residue V3 loop domain of HIV-1 gp120) (other)
chain: MASTRGYVNIKTFEQKLDGNKKIEGKEISVAFPLYSDVHKISGAHYQTFPSEKAAYSTVYEENQRTEWIAANEDLWKVTGCLNSSVEINCTRPNNNTRKRIRIQRGPGRAFVTIGKIGNMRQAHCNI
notes: mature;domain: V3 loop; also called SOV-V3
B2 was tested, and the “molar ratio of SOC-V3:gp23*” value was 1.8 mol/mol.
